Test results reported in paper PMC9157467, “A cryptic phosphate-binding pocket on the SPFH domain of human stomatin that regulates a novel fibril-like self-assembly” (Current Research in Structural Biology, 2022).
Residue numbers refer to the chain shown, from its start. Names may count otherwise.

B1: hSTOM(SPFH)-[R125A] (domain or fragment, human, UniProt P27105 94-202, looked up)
chain: VDMRTISFDIPPQEILTKDSVTISVDGVVYYAVQNATLAVANITNADSATRLLAQTTLRNVLGTKNLSQILSDREEIAHNMQSTLDDATDAWGIKVERVEIKDVKLPVQ
notes: human stomatin (STOM), SPFH domain, residues 94-202, with R125A; Same construct as m1 with one alanine substitution (QuikChange); source: E. coli BL21 (DE3), purified (DEAE Sepharose, Glutathione Sepharose 4 Fast Flow, thrombin cleavage, Superdex 75)
B2: hSTOM(SPFH)-[K188A] (domain or fragment, human, UniProt P27105 94-202, looked up)
chain: B1 chain with A32R, K95A
notes: human stomatin (STOM), SPFH domain, residues 94-202, with K188A; Same construct as m1 with one alanine substitution (QuikChange); source: E. coli BL21 (DE3), purified (DEAE Sepharose, Glutathione Sepharose 4 Fast Flow, thrombin cleavage, Superdex 75)

Biological target: the molecule itself
Assay: light scattering at 320 nm; lyophilized protein suspended to 400 uM in 50 mM sodium phosphate pH 6.0, 100 mM NaCl or 50 mM bis-Tris/HCl pH 6.0, 100 mM NaCl (mutants also at high phosphate); dissolution followed over time

Protein | binding result
B1 | binds
B2 | binds
